The data set deals with the molecule itself. The data set is described as follows: Western blot with anti-His6 antibody: band of about 92 kDa against a theoretical mass of 47 kDa. In general terms: In western blotting, separated proteins are transferred to a membrane and probed.

B1: HvNEP-1 (Hordeum vulgare nepenthesin-1-type aspartic endoprotease), ΔHvNEP-1 with C-terminal His6 tag, expressed in Pichia pastoris KM71H (enzyme)
chain: DADTPKVAMASSGAGSSFRLAAHHDHALSRSDDGFLHVQSRLDNLLPSEANVTTLRPPVASPLDMAFSVVVGLGSGKGRHDYNLKLDASGSLTWVQCKPCNPKQPQRGPLFDPKASSTFQQVAGTSQICHPPYPMEPAGQQCAFHLSGMGGMSVHGYVAMENLTMGPEAMKEFVFGCSHSTGHFNSHGTFAGVAAMGKMPTSLVMQVAARGQTRFSYCLFSGGASRHGFLRFGADVPSRSGLRTTKILPALDAHESQYYVSLVGISLDAKRLTGVRPEMFARQRGGEGGCVVDPGTPLTVLVREAYRVVEDAVWSDLRRNKAERVQREGYGLCVRKTAEIKRHLQSLSLHFAEETARLVVKPEQLFVAVESRLHGAALCLAMRPGERTVIGALQQVDTRFVYDLKDAKLSFASEPCSQDTAGVDHHHHHH
notes: also called HvNEP-1 protease; truncated HvNEP-1
On to B1, for which the binding result was “binds”.

The values are drawn from US20200325490A1 (AARHUS UNIVERSITET, published 2020).
